# Reference: patent US20190282616A1, “MACROPHAGES REDIRECT PHAGOCYTOSIS BY NON-PROFESSIONAL PHAGOCYTES AND INFLUENCE INFLAMMATION” (University of Virginia Patent Foundation, priority 2016, published 2019)
# What was measured:
# LR73 cells = assay: In vitro engulfment assay: apoptotic thymocyte uptake by LR73 cells; type: cell-based, hamster; details: soluble mediator alone; IGF-I at concentrations reported in serum (100-600 ng/mL); other factors over a range of concentrations
# Procedure: LR73, SVEC-40, BEAS-2B, and 16HBE14o-cells were seeded in a 24 well plate. Thymocytes were isolated from 4-6 week old mice and induced to undergo apoptosis with dexamethasone. Thymocytes or prepared microvesicles were then stained with either CypHer5E (GE Healthcare, PA15401) or TAMRA (Invitrogen, C-1171). LR73 and SVEC-40 cells were incubated with apoptotic thymocytes at a 1:10 phagocyte to target ratio, BEAS-2B at a 1:5 phagocyte to target ratio, and 16HBE14o—at a 1:20 phagocyte to target ratio for 2 hours. Mouse IGF-I (Sigma-Aldrich), human IGF-I (Sigma-Aldrich), human IGF-II (Sigma-Aldrich) were added to the phagocytes at the same time as addition of apoptotic targets. For IGFBP3 studies, IGFBP3 (Sigma-Aldrich) was added to media or supernatant from J774 cells for one hour to allow IGFBP3 to bind to any available IGF-I, then the mix is added to phagocytes along with apoptotic targets. […] Targets were then washed off three times with PBS, and the cells were dissociated from the plate with trypsin and the engulfment assessed by flow cytometry.
# [1] = tested on: IGF-1R, Akt and Erk1/2 phosphorylation in LR73 cells; assay: Immunoblotting of signaling in LR73 cells; type: cell-based, hamster; details: serum-starved LR73 cells, 100 ng/mL growth factor
# Procedure: LR73, J774, or BEAS-2B cells were seeded in a 60 mm dish at a concentration of 5×10^5. […] Cells were lysed in RIPA buffer and used in Western blots. The blots were probed for phospho-Erk1/2 (Cell Signaling Technology, #4370), phospho-Akt (Cell Signaling Technology, #4060), phospho-IGF-1R (Cell Signaling, #3024), total Erk2 (Santa Cruz Biotechnology, #sc-154-G), total Akt (Cell Signaling Technology, #4691), total IGF-1R (Cell Signaling, #9750), and anti-B-actin-HRP (Sigma-Aldrich, #A3854) followed by chemiluminescence detection.
# IGF-1 in BAL fluid = assay: In vivo cytokine administration: IGF-1 in BAL fluid; details: 1 μg recombinant mouse cytokine intranasally for two consecutive days
# Procedure: Mice were administered intranasally with 1 μg of recombinant mouse IL-4, IL-5, or IL-13 (eBiosciences), 1×10^6 apoptotic Jurkat cells, or PBS as control, for two consecutive days. On the third day, BAL fluid was recovered and centrifuged; the supernatant was stored at −80° C. for subsequent cytokine analysis. IL-4, IL-5, IL-6, and CCL-11/Eotaxin-1 in the BAL fluid of mice that were sensitized with HDM (regimen #1) were quantified by a multiplex Luminex performed by the University of Virginia Flow Cytometry Core Facility. Secretion of IGF-1 from J774 cells, peritoneal macrophages, and BAL fluids, as well as TSLP from BAL fluids, were measured by ELISA (R&D Systems).
Molecule,apoptotic cell uptake (engulfment) by LR73 cells (LR73 cells),early downstream signaling events (Erk1/2 phosphorylation) [1],IGF-1 in bronchoalveolar lavage (BAL) fluid (IGF-1 in BAL fluid)
"PDGF-BB: growth factor of the tested panel of soluble mediators (protein, UniProt P01127 82-190, looked up, homodimer, growth factor of the tested panel of soluble mediators) Platelet-derived growth …: SLGSLTIAEPAMIAECKTRTEVFEISRRLIDRTNANFLVWPPCVEVQRCSGCCNNRNVQCRPTQVQLRPVQVRKIEIVRKKPIFKKATVTLEDHLACKCETVAAARPVT",did not alter engulfment,elicited early downstream signaling events,
"IL-13: cytokine; recombinant mouse IL-13 (eBiosciences) (protein, UniProt P20109 19-131, looked up) Interleukin-13: APGPVPRSVSLPLTLKELIEELSNITQDQTPLCNGSMVWSVDLAAGGFCVALDSLTNISNCNAIYRTQRILHGLCNRKAPTTVSSLPDTKIEVAHFITKLLSYTKQLFRHGPF",,,induced IGF-1 production
"IL-5: cytokine; recombinant mouse IL-5 (eBiosciences) (protein, UniProt P04401 21-133, looked up) Interleukin-5: MEIPMSTVVKETLTQLSAHRALLTSNETMRLPVPTHKNHQLCIGEIFQGLDILKNQTVRGGTVEMLFQNLSLIKKYIDRQKEKCGEERRRTRQFLDYLQEFLGVMSTEWAMEG",,,"but not IL-5, induced IGF-1 production"
